How the values were obtained:
[1] = biological target: T1, human A53T α-synuclein (Homo sapiens, UniProt P37840, A53T); experiment: Brain α-synuclein ELISA in M83 transgenic mice after i.p. injection; type: in vivo, mouse; settings: 40 mg/kg i.p.
T1 construct: tissue The Jackson Laboratory 004479; host or cells: brain of M83 hemizygous transgenic mice
Procedure: Tat-βsyn-degron peptide was also shown to decrease α-synuclein levels in vivo, using M83 transgenic mice that overexpress mutant human A53T α-synuclein. M83 mice, injected intra-peritoneally (i.p.) with 40 mg/kg Tat-βsyn-degron peptide, were sacrificed at time points of 6, 12, 24, and 48 hrs and α-synuclein levels in the brain were measured by ELISA.
Male M83 hemizygous mice overexpressing the human A53T α-synuclein mutant (12 weeks old, 25-30 g, 004479, The Jackson Laboratory) were housed individually and maintained on a 12/12 hrs light/dark cycle at 22° C. ambient temperature and with unlimited access to food and water. Housing, breeding, and procedures were performed according to the Canadian Council on Animal Care and were approved by the McGill University Animal Care Committee.
Brains were lysed (1 g tissue per 3 mL solution) in a buffer solution (50 mM Tris pH 8, 150 mM NaCl, 5 mM EDTA, 1% NP-40, 0.5% sodium deoxycholate, 0.1% SDS, protease and inhibitor cocktail [aprotinin, leupeptin and benzamidine], and phosphatase inhibitor cocktail) on ice. Lysates were homogenized at 1,600 g several times, sonicated and finally centrifuged at 100,000 g for 30 min. The supernatant was collected and processed with the Human α-synuclein ELISA kit (KHB0061, ThermoFisher Scientific) and analyzed with a Tecan microplate reader (Tecan Infinite M200 Pro, life science). The level of α-synuclein was expressed as ng/ml total sample.

[2] = system: HSP90; experiment: HSP90 level in cortical cultures, immunoblot; type: cell-based, rat; settings: 50 μM, 24 hrs
Procedure: (§1) Primary rat neuron cultures were prepared from embryos of pregnant Sprague-Dawley rats (E18). The experimental protocol was approved by the University of British Columbia Animal Care Committee. Briefly, the cortical tissue or ventral midbrain tissue was isolated into ice cold HBSS (Invitrogen, 14170-112) and then digested with 0.25% trypsin-EDTA at 37° C. for 30 min. After washing with warm DMEM (supplemented with 10% FBS) three times, neurons were suspended in neuron culture media and dissociated by trituration using varying sizes of pipettes. Neurons were then centrifuged, and the pellet was re-suspended in culture media, washed twice with culture media, and plated on the poly-D-lysine-coated plates. Neuron culture was maintained in the 37° C. incubator with 95% O2 and 5% CO2. The morning after culturing, 2/3 of the neuron culture media was replaced with fresh neuron culture media. Media was then replaced every 3-4 days. […]
(§2) Brain tissues or cultured cells were lysed on ice in the lysis buffer and then the solution was centrifuged at 14,000 rpm for 10 min at 4° C. Next, the supernatant was collected and protein concentrations were determined using a BCA protein assay kit (Thermo Scientific, 23227). […] The band density of each protein was quantified by the Bio-Rad Quantity One software and the relative optical density was analyzed relative to the loading control β-actin on the same membrane.

[3] = biological target: T2, endogenous α-synuclein (Rattus norvegicus, UniProt P37377); experiment: α-synuclein level in MPP+-treated ventral midbrain cultures, immunoblot; type: cell-based; settings: 25 μM, 48 hrs, MPP+ 20 μM
T2 construct: endogenous in cells; host or cells: primary rat cortical neurons (14 DIV) and primary rat ventral midbrain neurons (3 DIV)
Procedure: as §1, §2

[4] = biological target: T3, purified recombinant human α-synuclein (Homo sapiens, UniProt P37840); experiment: Biacore peptide-protein binding assay; settings: 0.20-12.50 μM peptide, report point 20 seconds into dissociation
T3 construct: His (histidine tag) (N); purchased Sigma S7820-500UG
Procedure: Biacore experiments were performed using a Biacore 3000 instrument (GE Healthcare Biosciences, Upsala, Sweden) and HBS running buffer, pH 7.4, containing 10 mM HEPES, 150 mM NaCl, 3 mM EDTA, and 0.005% surfactant P20. A research-grade CM5 sensor chip was activated with a mixture containing equal molar amounts of EDC (N-ethyl-N′-(dimethylaminopropyl) carbodiide and NHS (N-hydroxysuccinimide). Purified recombinant human α-synuclein (N-terminal histidine tagged, Sigma, S7820-500UG), diluted in sodium acetate pH 3.1, was then injected and covalently coupled to a flow cell of the sensor chip surface by amide bonding. Residual unreacted sites were blocked with ethanolamine. A reference surface, to account for non-specific binding, was similarly generated by activating and blocking an adjacent flow cell. Approximately 1500 resonance units (RU), equivalent to a surface concentration of 1500 pg/mm^2 of α-synuclein, was immobilized.
To ascertain the binding interaction between α-synuclein knockdown peptides and α-synuclein, synthetic Tat-βsyn-degron peptide or control tat peptide was serially diluted and sequentially injected over the active surface containing immobilized α-synuclein and the reference surface for 3 minutes at a flow rate of 30 μl/minute. The peptides were then allowed to dissociate for 3 minutes during which time HBS running buffer was injected. The resultant sensorgrams were double-referenced by subtracting out the binding on the reference surface and the response from the HBS blank buffer control. Binding response report points were collected 20 seconds into the dissociation phase of the interaction at time 200 seconds, which represents a stable binding response and excludes bulk refractive index changes and nonspecific binding.

[5] = biological target: T2, endogenous α-synuclein; experiment: Knockdown of endogenous α-synuclein in primary cortical neuron cultures, immunoblot; type: cell-based
Procedure: Primary rat neuron cultures were prepared from embryos of pregnant Sprague-Dawley rats (E18). The experimental protocol was approved by the University of British Columbia Animal Care Committee. Briefly, the cortical tissue or ventral midbrain tissue was isolated into ice cold HBSS (Invitrogen, 14170-112) and then digested with 0.25% trypsin-EDTA at 37° C. for 30 min. After washing with warm DMEM (supplemented with 10% FBS) three times, neurons were suspended in neuron culture media and dissociated by trituration using varying sizes of pipettes. Neurons were then centrifuged, and the pellet was re-suspended in culture media, washed twice with culture media, and plated on the poly-D-lysine-coated plates. Neuron culture was maintained in the 37° C. incubator with […] and 5% CO2. The morning after culturing, 2/3 of the neuron culture media was replaced with fresh neuron culture media. Media was then replaced every 3-4 days. Primary rat cortical neuron culture was used 14 days in vitro (DIV) and primary rat ventral midbrain neuron culture was used 3 DIV.
Tat-βsyn-degron and Tat-βsyn peptides were first dissolved in sterile water as a 25 mM stock solution and then diluted directly in the neurobasal culture media to make the desired working concentration. 20 mM MPP+iodide stock solution was made freshly each time and diluted in the neurobasal culture media directly to make the desired working concentration. For 48 hrs treatment, neuron culture media containing MPP+ and peptides were replaced every 24 hrs.
Brain tissues or cultured cells were lysed on ice in the lysis buffer and then the solution was centrifuged at 14,000 rpm for 10 min at 4° C. Next, the supernatant was collected and protein concentrations were determined using a BCA protein assay kit (Thermo Scientific, 23227). Equal amount of protein samples was mixed with 4× sample buffer, boiled at 100° C. for 5 min, and separated on 10% sodium dodecyl sulphate-polyacrylamide gel electrophoresis (SDS-PAGE). Proteins were then transferred to Immobilon-PTM polyvinylidene fluoride (PVDF) membranes (Bio-Rad, 162-0177). The membranes were blocked with 5% non-fat milk in Tris-buffered saline containing 0.1% Tween-20 (TBST) for 1 hr at room temperature, and then incubated overnight at 4° C. with primary antibody. After washing 3×5 min in TBST, membranes were incubated with horseradish peroxidase-conjugated secondary antibody for 1 hr at room temperature. After another three washes with TBST, protein was visualized in the Bio-Rad Imager using ECL western blotting substrate (Pierce, 32016). The band density of each protein was quantified by the Bio-Rad Quantity One software and the relative optical density was analyzed relative to the loading control β-actin on the same membrane.

With “YGRKKRRQRRRRTKSGVYLVGRRRG (The sequence is synthesized (YGRKKRRQRRRRTKSGVYLVGRRRG)) [Tat-βsyn-degron]” the “time of peak effect on brain α-synuclein” value [1] was “around 24 hrs”, the “α-synuclein levels in the brain (ELISA)” value ([1]; 12 hrs) was “reduction of α-synuclein levels” and the “α-synuclein levels in the brain (ELISA)” value ([1]; 24 hrs) was “reduction of α-synuclein levels”. For the same sequence, the “expression level of HSP90” value [2] was “did not affect the expression levels”, the “endogenous α-synuclein protein levels” value [3] was “induced a robust reduction in endogenous α-synuclein protein levels” and the “binding response to immobilized α-synuclein” value [4] was “robust and similar binding”. For the same sequence, the “time course of knockdown of endogenous α-synuclein” value ([5]; 50 μM bath application, primary cortical cultures) was “induced a time-dependent knockdown of endogenous α-synuclein” and the “endogenous α-synuclein protein levels” value ([5]; bath application 24 hrs, 5-50 μM (control 50 μM), cortical neuron cultures) was “robust reduction of endogenous α-synuclein protein levels in a dose-dependent manner”.
